Consider twelve variants from FireProtDB.

B1: Tryptophan synthase alpha chain, P00929 (parent)
chain: MERYENLFAQLNDRREGAFVPFVTLGDPGIEQSLKIIDTLIDAGADALELGVPFSDPLADGPTIQNANLRAFAAGVTPAQCFEMLALIREKHPTIPIGLLMYANLVFNNGIDAFYARCEQVGVDSVLVADVPVEESAPFRQAALRHNIAPIFICPPNADDDLLRQVASYGRGYTYLLSRSGVTGAENRGALPLHHLIEKLKEYHAAPALQGFGISSPEQVSAAVRAGAAGAISGSAIVKIIEKNLASPKQMLAELRSFVSAMKAASRA
B2: Colicin-E1, P02978 (parent)
chain: METAVAYYKDGVPYDDKGQVIITLLNGTPDGSGSGGGGGKGGSKSESSAAIHATAKWSTAQLKKTQAEQAARAKAAAEAQAKAKANRDALTQRLKDIVNEALRHNASRTPSATELAHANNAAMQAEDERLRLAKAEEKARKEAEAAEKAFQEAEQRRKEIEREKAETERQLKLAEAEEKRLAALSEEAKAVEIAQKKLSAAQSEVVKMDGEIKTLNSRLSSSIHARDAEMKTLAGKRNELAQASAKYKELDELVKKLSPRANDPLQNRPFFEATRRRVGAGKIREEKQKQVTASETRINRINADITQIQKAISQVSNNRNAGIARVHEAEENLKKAQNNLLNSQIKDAVDATVSFYQTLTEKYGEKYSKMAQELADKSKGKKIGNVNEALAAFEKYKDVLNKKFSKADRDAIFNALASVKYDDWAKHLDQFAKYLKITGHVSFGYDVVSDILKIKDTGDWKPLFLTLEKKAADAGVSYVVALLFSLLAGTTLGIWGIAIVTGILCSYIDKNKLNTINEVLGI

In one data set the parent is B1. Particulars: Salmonella typhimurium (strain LT2 / SGSC1412 / ATCC 700720); pH 7.8; Thermal; Enzyme activity; sodium N/N-bis(2-hydroxyethyl)glycine 0.05 M; structure 2WSY; whole UniProt chain shown.
By Tm is commonly meant the temperature at which the thermal transition is half complete. For MERYENLFAQLNDRREGAFVPFVTLGDPGIEQSLKIIDTLIDAGADALELGVPFSDPLADGPTIQNANLRAFAAGVTPAQCFEMLALIREKHPTIPIGLLMYANLVFNNGIDAFYARSEQVGVDSVLVADVPVEESAPFRQAALRHNIAPIFICPPNADDDLLRQVASYGRGYTYLLSRSGVTGAENRGALPLHHLIEKLKEYHAAPALQGFGISSPEQVSAAVRAGAAGAISGSAIVKIIEKNLASPKQMLAELRSFVSAMKAASRA [C118S], the Tm is 41 °C and the “change of melting temperature, mutant - wild type (higher = more stable)” value is -5 °C.

The variants in the next data set derive from B2. As to conditions: Escherichia coli; pH 6; 22 °C; Urea; Fluorescence; dimethylglutaric acid 10 mM; NaCl 100 mM; reversible: yes; structure 2I88; whole UniProt chain shown.
Turning to METAVAYYKDGVPYDDKGQVIITLLNGTPDGSGSGGGGGKGGSKSESSAAIHATAKWSTAQLKKTQAEQAARAKAAAEAQAKAKANRDALTQRLKDIVNEALRHNASRTPSATELAHANNAAMQAEDERLRLAKAEEKARKEAEAAEKAFQEAEQRRKEIEREKAETERQLKLAEAEEKRLAALSEEAKAVEIAQKKLSAAQSEVVKMDGEIKTLNSRLSSSIHARDAEMKTLAGKRNELAQASAKYKELDELVKKLSPRANDPLQNRPFFEATRRRVGAGKIREEKQKQVTASETRINRINADITQIQKAISQVSNNRNAGIARVHEAEENLKKAQNNLLNSQIKDAVDATVSFYQTLTEKYGEKYSKMAQELADKSKGKKIGNVNEALAAFEKYKDVLNKKFSKADRDAIFNALASVKYDDWAKHLDQFAKYLKITGHVSFGYDVVSDILKIKDTGDFKPLFLTLEKKAADAGVSYVVALLFSLLAGTTLGIFGIAIVTGILCSYIDKNKLNTINEVLGI [W460F W495F], the “denaturant midpoint (higher = more stable)” value (“denaturant midpoint” for short) was 6.1 M. METAVAYYKDGVPYDDKGQVIITLLNGTPDGSGSGGGGGKGGSKSESSAAIHATAKWSTAQLKKTQAEQAARAKAAAEAQAKAKANRDALTQRLKDIVNEALRHNASRTPSATELAHANNAAMQAEDERLRLAKAEEKARKEAEAAEKAFQEAEQRRKEIEREKAETERQLKLAEAEEKRLAALSEEAKAVEIAQKKLSAAQSEVVKMDGEIKTLNSRLSSSIHARDAEMKTLAGKRNELAQASAKYKELDELVKKLSPRANDPLQNRPFFEATRRRVGAGKIREEKQKQVTASETRINRINADITQIQKAISQVSNNRNAGIARVHEAEENLKKAQNNLLNSQIKDAVDATVSFYQTLTEKYGEKYSKMAQELADKSKGKKIGNVNEALAAFEKYKDVLNKKFSKADRDAIWNALASVKYDDWAKHLDQFAKYLKITGHVSFGYDVVSDILKIKDTGDWKPLFLTLEKKAADAGVSYVVALLFSLLAGTTLGIWGIAIVTGILCSYIDKNKLNTINEVLGI [F413W]: the “denaturant midpoint” value turned out to be 5.7 M.

On to METAVAYYKDGVPYDDKGQVIITLLNGTPDGSGSGGGGGKGGSKSESSAAIHATAKWSTAQLKKTQAEQAARAKAAAEAQAKAKANRDALTQRLKDIVNEALRHNASRTPSATELAHANNAAMQAEDERLRLAKAEEKARKEAEAAEKAFQEAEQRRKEIEREKAETERQLKLAEAEEKRLAALSEEAKAVEIAQKKLSAAQSEVVKMDGEIKTLNSRLSSSIHARDAEMKTLAGKRNELAQASAKYKELDELVKKLSPRANDPLQNRPFFEATRRRVGAGKIREEKQKQVTASETRINRINADITQIQKAISQVSNNRNAGIARVHEAEENLKKAQNNLLNSQIKDAVDATVSFYQTLTEKYGEKWSKMAQELADKSKGKKIGNVNEALAAFEKYKDVLNKKFSKADRDAIFNALASVKYDDWAKHLDQFAKYLKITGHVSFGYDVVSDILKIKDTGDWKPLFLTLEKKAADAGVSYVVALLFSLLAGTTLGIWGIAIVTGILCSYIDKNKLNTINEVLGI [Y367W], for which the “denaturant midpoint” value was 4.9 M. The same measure, in the same setting: the figure for METAVAYYKDGVPYDDKGQVIITLLNGTPDGSGSGGGGGKGGSKSESSAAIHATAKWSTAQLKKTQAEQAARAKAAAEAQAKAKANRDALTQRLKDIVNEALRHNASRTPSATELAHANNAAMQAEDERLRLAKAEEKARKEAEAAEKAFQEAEQRRKEIEREKAETERQLKLAEAEEKRLAALSEEAKAVEIAQKKLSAAQSEVVKMDGEIKTLNSRLSSSIHARDAEMKTLAGKRNELAQASAKYKELDELVKKLSPRANDPLQNRPFFEATRRRVGAGKIREEKQKQVTASETRINRINADITQIQKAISQVSNNRNAGIARVHEAEENLKKAQNNLLNSQIKDAVDATVSFYQTLTEKYGEKYSKMAQELADKSKGKKIGNVNEALAAFEKYKDVLNKKWSKADRDAIFNALASVKYDDWAKHLDQFAKYLKITGHVSFGYDVVSDILKIKDTGDWKPLFLTLEKKAADAGVSYVVALLFSLLAGTTLGIWGIAIVTGILCSYIDKNKLNTINEVLGI [F404W] is 4.8 M; for METAVAYYKDGVPYDDKGQVIITLLNGTPDGSGSGGGGGKGGSKSESSAAIHATAKWSTAQLKKTQAEQAARAKAAAEAQAKAKANRDALTQRLKDIVNEALRHNASRTPSATELAHANNAAMQAEDERLRLAKAEEKARKEAEAAEKAFQEAEQRRKEIEREKAETERQLKLAEAEEKRLAALSEEAKAVEIAQKKLSAAQSEVVKMDGEIKTLNSRLSSSIHARDAEMKTLAGKRNELAQASAKYKELDELVKKLSPRANDPLQNRPFFEATRRRVGAGKIREEKQKQVTASETRINRINADITQIQKAISQVSNNRNAGIARVHEAEENLKKAQNNLLNSQIKDAVDATVSFYQTLTEKYGEKYSKMAQELADKSKGKKIGNVNEALAAFEKYKDVLNKKFSKADRDAIFNALASVKYDDWAKHLDQFAKYLKITGHVSFGYDVVSDILKIKDTGDWKPLFLTLEKKAADAGVSYVVALLWSLLAGTTLGIWGIAIVTGILCSYIDKNKLNTINEVLGI [F484W] it is 4.6 M. Still for that read-out and setting: the figure for METAVAYYKDGVPYDDKGQVIITLLNGTPDGSGSGGGGGKGGSKSESSAAIHATAKWSTAQLKKTQAEQAARAKAAAEAQAKAKANRDALTQRLKDIVNEALRHNASRTPSATELAHANNAAMQAEDERLRLAKAEEKARKEAEAAEKAFQEAEQRRKEIEREKAETERQLKLAEAEEKRLAALSEEAKAVEIAQKKLSAAQSEVVKMDGEIKTLNSRLSSSIHARDAEMKTLAGKRNELAQASAKYKELDELVKKLSPRANDPLQNRPFFEATRRRVGAGKIREEKQKQVTASETRINRINADITQIQKAISQVSNNRNAGIARVHEAEENLKKAQNNLLNSQIKDAVDATVSFYQTLTEKYGEKYSKMAQELADKSKGKKIGNVNEALAAFEKYKDVLNKKFSKADRDAIFNALASVKYDDWAKHLDQFAKYLKITGHVSFGYDVVSDILKIKDTGDWKPLFLTLEKKAADAGVSYVVALLFSLLAGTTLGIWGIAIVTGILCSWIDKNKLNTINEVLGI [Y507W] is 5.7 M. As to METAVAYYKDGVPYDDKGQVIITLLNGTPDGSGSGGGGGKGGSKSESSAAIHATAKWSTAQLKKTQAEQAARAKAAAEAQAKAKANRDALTQRLKDIVNEALRHNASRTPSATELAHANNAAMQAEDERLRLAKAEEKARKEAEAAEKAFQEAEQRRKEIEREKAETERQLKLAEAEEKRLAALSEEAKAVEIAQKKLSAAQSEVVKMDGEIKTLNSRLSSSIHARDAEMKTLAGKRNELAQASAKYKELDELVKKLSPRANDPLQNRPFFEATRRRVGAGKIREEKQKQVTASETRINRINADITQIQKAISQVSNNRNAGIARVHEAEENLKKAQNNLLNSQIKDAVDATVSFYQTLTEKYGEKYSKMAQELADKSKGKKIGNVNEALAAFEKYKDVLNKKFSKADRDAIFNALASVKYDDWAKHLDQWAKYLKITGHVSFGYDVVSDILKIKDTGDWKPLFLTLEKKAADAGVSYVVALLFSLLAGTTLGIWGIAIVTGILCSYIDKNKLNTINEVLGI [F431W], the “denaturant midpoint” value is 5.8 M. Take METAVAYYKDGVPYDDKGQVIITLLNGTPDGSGSGGGGGKGGSKSESSAAIHATAKWSTAQLKKTQAEQAARAKAAAEAQAKAKANRDALTQRLKDIVNEALRHNASRTPSATELAHANNAAMQAEDERLRLAKAEEKARKEAEAAEKAFQEAEQRRKEIEREKAETERQLKLAEAEEKRLAALSEEAKAVEIAQKKLSAAQSEVVKMDGEIKTLNSRLSSSIHARDAEMKTLAGKRNELAQASAKYKELDELVKKLSPRANDPLQNRPFFEATRRRVGAGKIREEKQKQVTASETRINRINADITQIQKAISQVSNNRNAGIARVHEAEENLKKAQNNLLNSQIKDAVDATVSFYQTLTEKYGEKYSKMAQELADKSKGKKIGNVNEALAAFEKYKDVLNKKFSKADRDAIFNALASVKYDDFAKHLDQFAKYLKITGHVSFGYDVVSDILKIKDTGDFKPLFLTLEKKAADAGVSYVVALLFSLLAGTTLGIWGIAIVTGILCSYIDKNKLNTINEVLGI [W424F W460F]: the “denaturant midpoint” value worked out at 5.3 M. Same read-out and setting: the figure for METAVAYYKDGVPYDDKGQVIITLLNGTPDGSGSGGGGGKGGSKSESSAAIHATAKWSTAQLKKTQAEQAARAKAAAEAQAKAKANRDALTQRLKDIVNEALRHNASRTPSATELAHANNAAMQAEDERLRLAKAEEKARKEAEAAEKAFQEAEQRRKEIEREKAETERQLKLAEAEEKRLAALSEEAKAVEIAQKKLSAAQSEVVKMDGEIKTLNSRLSSSIHARDAEMKTLAGKRNELAQASAKYKELDELVKKLSPRANDPLQNRPFFEATRRRVGAGKIREEKQKQVTASETRINRINADITQIQKAISQVSNNRNAGIARVHEAEENLKKAQNNLLNSQIKDAVDATVSTYQTLTEKYGEKYSKMAQELADKSKGKKIGNVNEALAAFEKYKDVLNKKFSKADRDAIFNALASVKYDDWAKHLDQFAKYLKITGHVSFGYDVVSDILKIKDTGDWKPLFLTLEKKAADAGVSYVVALLFSLLAGTTLGIWGIAIVTGILCSYIDKNKLNTINEVLGI [F355T] is 4.9 M. Same read-out and setting: in the case of METAVAYYKDGVPYDDKGQVIITLLNGTPDGSGSGGGGGKGGSKSESSAAIHATAKWSTAQLKKTQAEQAARAKAAAEAQAKAKANRDALTQRLKDIVNEALRHNASRTPSATELAHANNAAMQAEDERLRLAKAEEKARKEAEAAEKAFQEAEQRRKEIEREKAETERQLKLAEAEEKRLAALSEEAKAVEIAQKKLSAAQSEVVKMDGEIKTLNSRLSSSIHARDAEMKTLAGKRNELAQASAKYKELDELVKKLSPRANDPLQNRPFFEATRRRVGAGKIREEKQKQVTASETRINRINADITQIQKAISQVSNNRNAGIARVHEAEENLKKAQNNLLNSQIKDAVDATVSFYQTLTEKYGEKYSKMAQELADKSKGKKIGNVNEALAAFEKYKDVLNKKFSKADRDAIFNALASVKYDDFAKHLDQFAKYLKITGHVSFGYDVVSDILKIKDTGDWKPLFLTLEKKAADAGVSYVVALLFSLLAGTTLGIFGIAIVTGILCSYIDKNKLNTINEVLGI [W424F W495F] it was 6.1 M; in that of METAVAYYKDGVPYDDKGQVIITLLNGTPDGSGSGGGGGKGGSKSESSAAIHATAKWSTAQLKKTQAEQAARAKAAAEAQAKAKANRDALTQRLKDIVNEALRHNASRTPSATELAHANNAAMQAEDERLRLAKAEEKARKEAEAAEKAFQEAEQRRKEIEREKAETERQLKLAEAEEKRLAALSEEAKAVEIAQKKLSAAQSEVVKMDGEIKTLNSRLSSSIHARDAEMKTLAGKRNELAQASAKYKELDELVKKLSPRANDPLQNRPFFEATRRRVGAGKIREEKQKQVTASETRINRINADITQIQKAISQVSNNRNAGIARVHEAEENLKKAQNNLLNSQIKDAVDATVSFYQTLTEKYGEKYSKMAQELADKSKGKKIGNVNEALAAFEKYKDVLNKKFSKADRDAIFNALASVKYDDWAKHLDQFAKYLKITGHVSWGYDVVSDILKIKDTGDWKPLFLTLEKKAADAGVSYVVALLFSLLAGTTLGIWGIAIVTGILCSYIDKNKLNTINEVLGI [F443W], 5.5 M.
